From patent US6191256A, “Recombinant factor VIII binding peptides” (Bayer Corporation, priority 1998, dated 2001) come the findings set out here.

For assay [1], the target named is T1, rFVIII (Homo sapiens, UniProt P00451). As to the kind of experiment: confirmatory binding assay in filtration plate format using 14C-rFVIII. Particulars: for Total dpm / 0.5M CaCl2 % total / 2% acetic acid % total / 2% acetic acid dpm / 0.5M CaCl2 dpm / beads % total / beads dpm: Table 4; for Total dpm / beads % total / beads dpm: 14C-rFVIII 30 nM; for 0.5M CaCl2 % total / 2% acetic acid % total / 2% acetic acid dpm / 0.5M CaCl2 dpm: 14C-rFVIII 30 nM in PPF, 5 mg beads; for 0.5M CaCl2 dpm: 5.0 × 10^15 dpm/mole, 5° C.; for beads % total / beads dpm: remaining on beads after washes. The gist of the method:
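Peptides synthesized on TOYOPEARL AF amino 650 M resin (0.1 mmole/g) were tested in triplicate after equilibration in 20 mM imidazole, 10 mM CaCl2, 0.105 M NaCl, pH 6.9. The beads were incubated 1 hour at 5° C with 20-30 nM 14C-rFVIII in neat PPF, then washed with buffer, 0.5 M and 1.0 M CaCl2, and 2% acetic acid. Mass balance was taken from dpm of each fraction and of the beads.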

In assay [2] the target is T1, rFVIII. As to the kind of experiment: column format binding assay, rFVIII mass per fraction by sandwich capture ELISA for the light chain. The note with it: Table 6; for Flow through ng: 10,000 ng rFVIII in 1:10 PPF injected, 5° C. The gist of the method:
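Peptide resin columns (0.4×5 cm, 5 °C) loaded with 10,000 ng rFVIII in 1:10 PPF, 10 min residence time; step elution with 0.5 M and 1.0 M CaCl2 then 2% acetic acid (neutralized). Fraction rFVIII mass by light-chain sandwich ELISA; activity by chromogenic substrate; total protein by A280.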

The target of assay [3] is T1, rFVIII. In words: rFVIII activity recovery from peptide columns by chromogenic substrate assay (COATEST). Format: biochemical. The note with it: Table 8; for 0.5M CaCl2 % total: activity recovery; for Flow through IU: rFVIII activity in fraction. The gist of the method:
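Peptide resin columns (0.4×5 cm, 5°C) loaded with 10,000 ng rFVIII in 1:10 PPF, step-eluted with 0.5 M and 1.0 M CaCl2, then 2% acetic acid (neutralized with Tris). Fractions stabilized with hSA; rFVIII activity recovery by chromogenic substrate assay against a MEGA 1-calibrated standard.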

T1 sequence (P00451 20-2351): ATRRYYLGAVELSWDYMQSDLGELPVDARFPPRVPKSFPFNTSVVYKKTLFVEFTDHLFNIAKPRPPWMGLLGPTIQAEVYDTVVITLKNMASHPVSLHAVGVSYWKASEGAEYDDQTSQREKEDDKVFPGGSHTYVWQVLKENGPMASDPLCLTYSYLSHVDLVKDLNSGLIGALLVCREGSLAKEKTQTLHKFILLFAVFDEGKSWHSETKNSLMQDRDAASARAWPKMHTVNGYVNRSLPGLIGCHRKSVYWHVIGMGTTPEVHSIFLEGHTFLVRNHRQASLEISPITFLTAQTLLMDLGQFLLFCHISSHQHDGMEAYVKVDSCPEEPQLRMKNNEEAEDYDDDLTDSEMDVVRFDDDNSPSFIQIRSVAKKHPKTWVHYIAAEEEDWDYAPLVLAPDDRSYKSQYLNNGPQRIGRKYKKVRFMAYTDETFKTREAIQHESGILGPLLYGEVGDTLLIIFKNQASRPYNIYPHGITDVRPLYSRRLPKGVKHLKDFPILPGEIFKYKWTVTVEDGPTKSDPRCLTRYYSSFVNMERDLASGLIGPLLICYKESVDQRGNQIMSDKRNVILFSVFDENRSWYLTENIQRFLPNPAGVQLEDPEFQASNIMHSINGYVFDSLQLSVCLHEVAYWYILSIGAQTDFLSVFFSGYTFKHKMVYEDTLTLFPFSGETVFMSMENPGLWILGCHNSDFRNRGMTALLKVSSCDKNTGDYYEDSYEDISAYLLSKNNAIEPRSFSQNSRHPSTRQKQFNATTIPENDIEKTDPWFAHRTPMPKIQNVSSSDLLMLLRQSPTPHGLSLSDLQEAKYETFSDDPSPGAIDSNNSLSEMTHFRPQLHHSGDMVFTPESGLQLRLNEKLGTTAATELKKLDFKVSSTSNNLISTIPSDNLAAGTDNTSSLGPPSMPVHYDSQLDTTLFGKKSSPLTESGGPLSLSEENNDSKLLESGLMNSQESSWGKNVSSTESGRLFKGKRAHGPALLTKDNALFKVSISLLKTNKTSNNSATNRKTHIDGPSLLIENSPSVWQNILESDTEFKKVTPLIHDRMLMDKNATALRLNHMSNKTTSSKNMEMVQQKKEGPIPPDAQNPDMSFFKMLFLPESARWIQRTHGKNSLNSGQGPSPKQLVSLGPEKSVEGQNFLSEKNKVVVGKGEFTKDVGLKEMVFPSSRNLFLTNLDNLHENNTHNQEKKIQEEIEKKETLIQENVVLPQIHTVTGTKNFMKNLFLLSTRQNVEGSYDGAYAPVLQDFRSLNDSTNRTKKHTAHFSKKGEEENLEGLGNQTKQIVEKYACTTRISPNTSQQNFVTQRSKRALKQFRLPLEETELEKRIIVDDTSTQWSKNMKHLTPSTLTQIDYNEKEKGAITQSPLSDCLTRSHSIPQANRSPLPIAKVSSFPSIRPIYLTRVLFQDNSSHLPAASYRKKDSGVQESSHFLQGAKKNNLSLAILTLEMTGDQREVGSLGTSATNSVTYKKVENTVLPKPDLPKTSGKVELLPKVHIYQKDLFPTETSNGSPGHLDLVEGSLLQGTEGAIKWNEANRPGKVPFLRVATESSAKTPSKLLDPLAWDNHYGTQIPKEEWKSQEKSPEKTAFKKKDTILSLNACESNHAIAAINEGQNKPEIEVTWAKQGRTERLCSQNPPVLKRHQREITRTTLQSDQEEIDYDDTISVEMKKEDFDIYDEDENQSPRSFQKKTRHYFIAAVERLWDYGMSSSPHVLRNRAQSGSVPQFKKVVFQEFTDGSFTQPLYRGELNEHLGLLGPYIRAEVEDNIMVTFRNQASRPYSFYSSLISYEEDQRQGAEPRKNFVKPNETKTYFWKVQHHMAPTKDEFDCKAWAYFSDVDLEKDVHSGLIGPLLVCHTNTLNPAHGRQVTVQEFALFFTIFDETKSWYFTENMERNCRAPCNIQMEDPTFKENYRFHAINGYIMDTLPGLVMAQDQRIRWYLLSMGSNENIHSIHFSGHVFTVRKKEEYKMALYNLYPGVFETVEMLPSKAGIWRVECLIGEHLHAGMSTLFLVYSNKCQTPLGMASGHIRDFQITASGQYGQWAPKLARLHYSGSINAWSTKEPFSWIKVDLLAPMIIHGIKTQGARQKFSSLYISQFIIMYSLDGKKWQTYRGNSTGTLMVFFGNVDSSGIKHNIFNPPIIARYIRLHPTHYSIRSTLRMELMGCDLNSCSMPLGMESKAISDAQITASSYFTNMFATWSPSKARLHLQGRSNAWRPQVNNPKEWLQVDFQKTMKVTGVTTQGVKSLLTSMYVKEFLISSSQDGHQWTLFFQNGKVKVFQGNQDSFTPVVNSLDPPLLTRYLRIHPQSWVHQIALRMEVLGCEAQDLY
T1 sequence (P00451 1668-2351 limits assumed): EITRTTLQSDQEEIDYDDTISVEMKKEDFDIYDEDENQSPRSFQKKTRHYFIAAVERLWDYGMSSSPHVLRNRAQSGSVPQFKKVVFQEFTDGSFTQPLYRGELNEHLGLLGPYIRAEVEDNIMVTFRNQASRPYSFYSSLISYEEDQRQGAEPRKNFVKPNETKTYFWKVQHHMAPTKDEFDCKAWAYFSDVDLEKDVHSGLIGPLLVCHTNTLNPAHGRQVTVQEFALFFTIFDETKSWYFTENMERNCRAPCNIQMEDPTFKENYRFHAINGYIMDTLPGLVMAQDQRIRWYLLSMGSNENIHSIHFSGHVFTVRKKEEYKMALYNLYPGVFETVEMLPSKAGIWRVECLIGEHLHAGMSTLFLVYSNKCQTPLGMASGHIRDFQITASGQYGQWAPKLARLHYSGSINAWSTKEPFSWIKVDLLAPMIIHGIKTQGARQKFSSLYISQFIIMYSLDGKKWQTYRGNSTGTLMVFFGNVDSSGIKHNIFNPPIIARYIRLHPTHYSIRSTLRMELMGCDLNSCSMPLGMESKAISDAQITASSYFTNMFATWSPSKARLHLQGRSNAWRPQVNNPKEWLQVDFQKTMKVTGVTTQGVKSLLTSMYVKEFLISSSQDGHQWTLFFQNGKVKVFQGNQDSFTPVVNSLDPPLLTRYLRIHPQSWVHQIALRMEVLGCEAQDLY

As for 21 (HFQIFG) [compound 21], in the assay with rFVIII [1], the Total dpm is recorded as 3484 dpm, the “0.5M CaCl2 % total” value was found to be 21%, the “2% acetic acid % total” value was 63% and the “2% acetic acid dpm” value is listed as 2208 dpm. In addition, in the assay with rFVIII [1], the “0.5M CaCl2 dpm” value was 722 dpm, the beads % total is reported as 16% and the beads dpm stood at 554 dpm. For the same substance, in the assay with rFVIII [2], the “0.5M CaCl2 ng” value was 1239 ng, the “0.5M CaCl2 % total” value stood at 22%, the “2% acetic acid % total” value worked out at 60% and the “2% acetic acid ng” value is 3284 ng. In the assay with rFVIII [2], the “Flow through % total” value is 0%, the Total ng came to 5510 ng and the Flow through ng came out at 0 ng. For the same substance, in the assay with rFVIII [3], the “0.5M CaCl2 IU” value stood at 11.4 IU, the “2% acetic acid % total” value amounted to 19%, the “2% acetic acid IU” value is recorded as 4.1 IU and the “Flow through % total” value is listed as 0%. In addition, in the assay with rFVIII [3], the “Total IU” value turned out to be 21.2 IU, the “0.5M CaCl2 % total” value is 53% and the “Flow through IU” value is 0.0 IU.
For 22 (FVFLVR) [compound 22], in the assay with rFVIII [1], the Total dpm was 4116 dpm, the “0.5M CaCl2 % total” value is reported as 16%, the “2% acetic acid % total” value is listed as 19% and the “2% acetic acid dpm” value is reported as 783 dpm. In the assay with rFVIII [1], the “0.5M CaCl2 dpm” value was determined as 675 dpm, the beads % total is recorded as 65% and the beads dpm was 2658 dpm. The “binding of rFVIII in words” value with rFVIII [1] (plate format) is recorded as “tight binding”. Moreover, in the assay with rFVIII [2], the “0.5M CaCl2 ng” value stood at 4 ng, the “0.5M CaCl2 % total” value stood at 0%, the “2% acetic acid % total” value is recorded as 100% and the “2% acetic acid ng” value came to 4500 ng. In addition, in the assay with rFVIII [2], the “Flow through % total” value came to 0%, the Total ng was found to be 4504 ng and the Flow through ng was 0 ng. Besides, in the assay with rFVIII [3], the “0.5M CaCl2 IU” value came to 0.0 IU, the “2% acetic acid % total” value amounted to 100%, the “2% acetic acid IU” value is on record as 2.3 IU and the “Flow through % total” value turned out to be 0%. For the same substance, in the assay with rFVIII [3], the “Total IU” value came to 2.3 IU, the “0.5M CaCl2 % total” value turned out to be 0% and the “Flow through IU” value amounted to 0.0 IU.
